The source of these data is article PMC6138625.

Test in all cases: magnetic tweezers SMBA
In series [1] the test system is UPF1/BC (Saccharomyces cerevisiae / Homo sapiens chimera). The following applies: no ATP; slides; SMBA in helicase buffer without ATP (composition not in the material), 1-20 nM helicase, force cycles >15 pN / 7 pN / <3 pN.
For series [2], the system named is IGHMBP2/BC (Homo sapiens / Saccharomyces cerevisiae chimera). The following applies: no ATP; SMBA in helicase buffer without ATP (composition not in the material), 1-20 nM helicase, force cycles >15 pN / 7 pN / <3 pN.
The test system of series [3] is IGHMBP2-FL (Homo sapiens). The following applies: no ATP; 7 pN; n=27; SMBA in helicase buffer without ATP (composition not in the material), 1-20 nM helicase, force cycles >15 pN / 7 pN / <3 pN.
Series [4] relates to yUPF1 helicase domain (Saccharomyces cerevisiae). The conditions noted are these: no ATP; 7 pN; n=11; SMBA in helicase buffer without ATP (composition not in the material), 1-20 nM helicase, force cycles >15 pN / 7 pN / <3 pN.
Series [5] deals with IGHMBP2 helicase core (Homo sapiens). The following applies: no ATP; 7 pN; n=48; SMBA in helicase buffer without ATP (composition not in the material), 1-20 nM helicase, force cycles >15 pN / 7 pN / <3 pN.
Series [6] concerns UPF1 R487S (R-S) (Saccharomyces cerevisiae). The conditions noted are these: SMBA in helicase buffer without ATP (composition not in the material), 1-20 nM helicase, force cycles >15 pN / 7 pN / <3 pN.

Consider magnetic tweezers DNA hairpin, for which the binding signal (s (residence time)) in series [1] is 930; in series [2] it was 9540; in series [3], 60; in series [4], over 5500; in series [5] it was 20; in series [6] (ADPNP, sliding -0.109 nm/s, n=58), 1630. The binding signal (s (residence time)) in series [6] (no ATP, sliding -0.063 nm/s) is 1840.
